Laboratory results as given in US20130309222A1 (Janssen / Centocor, published 2013).
Ends that are not written are not given here.

What was measured:
[1] = biological target: infliximab; test: ELISA, infliximab captured on goat anti-human Fc, biotinylated peptide titrated, streptavidin-HRP, luminescence
[2] = biological target: infliximab; test: SPR (Biacore S51), biotinylated peptide on streptavidin chip, infliximab as analyte, 1:1 Langmuir fit, average of N=2

infliximab, sequence (VH, as listed by the source, chain 1 of 2): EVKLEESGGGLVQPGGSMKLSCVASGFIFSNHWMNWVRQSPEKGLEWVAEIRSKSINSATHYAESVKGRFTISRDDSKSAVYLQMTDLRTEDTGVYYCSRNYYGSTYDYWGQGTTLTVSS
infliximab, sequence (VL, as listed by the source, chain 2 of 2): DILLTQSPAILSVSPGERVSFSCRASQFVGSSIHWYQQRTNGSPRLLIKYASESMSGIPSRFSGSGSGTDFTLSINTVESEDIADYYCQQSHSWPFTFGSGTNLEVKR

EC50 (read off the curve) [1] [µM] | Kd [2] [nM] | Binder
~3 | 17.1 | AGYVCDPAGPNCWA (cysteine pairing not given here; also: biotinylated, position not given here, Fmoc solid phase synthesis; also called 1011A) [biotinylated, chemically synthesized peptide having SEQ ID NO: 2]
~10 | 9.17 | AGVWCGDETLPPSICFR (cysteine pairing not given here; also: biotinylated, position not given here, Fmoc solid phase synthesis; also called 1067B) [biotinylated, chemically synthesized peptide having SEQ ID NO: 10]
